assay: soluble on expression in E. coli; label from the status in PepcDB or PDB records

Soluble on expression in E. coli, not soluble:
MGSDKIHHHHHHMTRTTLEAGVTRRDVLKVAGLTGLGAALYASGLERWLPRALTAEATNQVPFYGKYQAGILTPPQNHVQIVAFDVQTTRRDELIDLLKRWTRACARLTAGLPLGDSDSLYVPPEDTGEAEGLSASHLTFTFGCGHGLFADDRFEIGHKRPNLLRELPAFDLDQLDPKWAGGDLVVQICADDQQVVFHALRNLTRIGRGIVKIRWTQTGFQRSKAADATGGTPRNLFGFKDGTGNPDVSQPAIRNKHLFYQWQDGSPWMTNGSFLVVRRIQMHLEVWDRTILKEQERTFGRDRASGAPLGSKDEFASVTPSKRTARGEASLPKDSHTAVAHGSGEAQLLRRSYSYQAGINETTGALDAGLLFLSYQRSPEQFITIQRRLAASDRLNEYITHRGSALFACFGGIQKGGYIGDALFA
MGSDKIHHHHHHMTSREDEIRDFLATHGYADWNRTPLAGDASSRRYQRLRSPTGAKAVLMDWSPEEGGDTQPFVDLAQYLRNLDISAPEIYAEEHARGLLLIEDLGDALFTEVINNDPAQEMPLYRAAVDLLIHLHDAQTPELARLDPETLSEMTRLAFSEYRYAILGDAAEDNRKRFEHRFAQILSAQLEGDMVFVHRDFHAQNLLWLPEREGLARVGVIDFQDAKLGHRAYDLVSLLQDARRDVPAQVEAQMIDHYIQATGVDESHFRSAYAVIAVQRNMRILGIFARLSQRFGKRHYIEFVPRVWAHFERGLAHPALASAAEEILNALPAPAPEVLERLRA
MGSDKIHHHHHHMTSTVFAQSDDFTTWTKFKVNYKIDPRFSLLSNLEFRTKDDVSRMDRLGLAIGGEYRAYSFLKLEAGYETHFRNLGDSEWKFRHRYNFGATASFQYQWLKIALRERFQQTFDRGDSKARLRSRLKLAYAPEKGIVSPYFSIEIYQSLDDAPFWRADRMRYRPGVEIALAKRWALDIFYCYQYESPKGKHIAGVEIGYSF
MGSDKIHHHHHHMTTAQHTVEKIGGTSMSNYEAVRDNIIIGKRKKSDLYQRIFVVSAYGGVTNELLEHKKTGEPGVYALFADAESDWAWGDDLTKLIQLLTDINGELFADPMLKQQADQFITDRIEGVRGCLIDLQRLCSYGQFQLEEHLLTVREMLAGIGEAHSAFNTALKLQQEGINARFVDLTGWRDSELLPLDEKLKQAFDAIDLSRELPIVTGYAQCKEGLMRTFDRGYSEMTFSRTAVITNAREAIIHKEYHLSSADPNIVGEDKVVPLGRTNYDVADQLANLGMEAIHPRAGKGLRQNEIPLRVMNTFEPEHTGTLITGDYVSEKPQVEIVAGAKGVFAIEVFDQDMQGEPGSDRRILDVLSRFKVRFMSKDTNANTITHYVDTTLKHVKRVVKALEEEFPNAEISTRKVALVSAIGSDMKVPGILARSVKSLADNDISVLAIHQCMRQVDIQFVVDEDKYDQAIVALHGALIEPHNHEYAIVAASTTAG
MGSDKIHHHHHHMTTFTAKFIDQEWEVPVESGRYHMIVGEFCPYAQRPQIARQLLGLDKHISISFVDDVPSDIGLIFSQPEQVTGAKSLRDIYHLTDPTYQGPYTIPILIDKTDNRIVCKESADLLRLFTTDFSDLHQEDAPVLFSQETASLIDNDIKDINKNFQSLMYKLAFLDKQADYDTYSKEFFTFLDQKEHLLGQRPFLLGDNLSEVDIHFFTPLVRWDIAGRDLLLLNQKALEDYPNIFSWAKTLYNDFNLKTLTNPQSIKNNYYLGKFGRAVRHHTIVPTGPNMAKWEK
MGSDKIHHHHHHMTTLNAIFRPFIQPHRYKIAKGGRGSGKSWAIARLLVEIARRGTYRFLCAREFQASMADSVIQLIADTIQREGYLKEFEIQKAYIRHLAATDSLFMFYGIKNNVTKIKSLEGIDIAWVEEAEAVTKESWDILIPTIRKPGSEIWVSFNSKNILDDTYQRFVVNPPDDICLLTVHYTDNPHFPEVLRLEMEECKCKDYDLYLHIWEGQPVADSDLAIIKPLWIAAAVDAHMTLGFDAVGEKRLGFDVADEGKTATPCALCRAQSC
MGSDKIHHHHHHMTTYRTVSIDGLDIFYREAGSRNNPTILLLHGFPTSSHMFRNLIPALADKFHLVAPDYPGYGNSSMPTVNEFDYTFDNLAEIVEKFIAAIALKKYSLYVMDYGAPIGYRIAAKYPERVQSLIVQNGNAYEEGLREFWEPIKAYWQERSPENAEKLKYLVTLEATKWQYTNGVRNLEAISPDTWTMDQHFLDRPGNDEIQLALLYSYGTNPLLYPQWQEYFRNYQPPTLIVWGKNDYIFPADGAYPYQRDLKDVEFHLLDTGHFALEEDGDAIANYIDQFLTSRLQSIPV
MGSDKIHHHHHHMTVLIVTFSNDNESIPLVIKEIEARGEKAFRFDTDRYPTEVKLDIYCGDTERVIITDGEQKLDLSEVSSVWYRRMRYGQKIPDSMDKQYRDASIQECRVTVRGMIASLPGFHFDQMANVDRANNKQLQLKVAKEVGLLTPRTLTSNNPEAVKKFAQDCPQGIITKMLSSFAIYDDQGRENVVFTTPITNDDLENMEGLCFCPMTFQENIPKALELRTTIVGHHVFTAAVDSQSLQGSTYDWRKEGKNLAKNWQPYNLPEDIEKKLLKLMANFGLKYGAIDIIVTPDGRHVFLEVNPVGEFFWMEIYPPYYPISQAIAEILLTHKS
MGSDKIHHHHHHMTVNDKKRLAIIGGGPGGLAAARVFSQSLPNFEIEIFVKDYDIGGVWHYPEQKSDGRVMYDHLETNISKKLMQFSGFPFEENVPLYPSRRNIWEYLKAYYKTFIANKDAISIHFSTEVTYLKKKNSQWEITSKDELRTTKSDFDFVIVASGHYSVPKLPTNIAGLDLWFDNKGAFHSKDFKNCEFAREKVVIVVGNGSSGQDIANQLTTVAKKVYNSIKEPASNQLKAKLIETVQTIDSADWKNRSVTLSDGRVLQNIDYIIFATGYYYSFPFIEPSVRLEVLGEGVTGDKHSSVNLHNLWEHMIYVKDPTLSFILTPQLVIPFPLSELQAAIMVEVFCKSLPITTTFDSNACGTHNFPKERTWNTMQNYRNY
MGSDKIHHHHHHMTYLVTGATGGLGGYALNYLKELVPMSDIYALVRSEEKGADLKAAGFNIRVGDYSDAESMKQAFVGIDRVLFVSGAPGNRQVEHENVVNAAKAAGVSYIAYTSFAGADKSTSALAEDHFFTEKVIEKSGIAHTFLRNNWYFENEMPMIGGALSAGKFVYAAENGKVGWALKREYAEVAAKAVAGADFPEILELSGPLMTYEELTKALKEATGKDFDVISSDDKGFVENLVSAGLPQPVAEMFLSFQHDIKNDQLDVTSDDFEKALGKPLTNRVDALRELLK
MGSDKIHHHHHHMTYYESGLLRARWASWQDARAGRTAQANARWGWIKAPGERGPILWMQSFSDADQQRLGIELAKAMAEKRRDLRMVMTFETEYPALLEQHTEGAERLGYGFGPCDHPQAVGRMLERLTPLRYLALGRAPRPRLAAALGRRKIPAVLMAADPGLQIPAPLEAVYPRDARQAGAWAGRGVTEAVQEPVDFATLFTIAQVDPNFRAMISGTDEGLLWWAQGLSAAQWAGWRRAWAASPLSRHGLLFLGGTGAPTDLPRLSAWQRAPLPAGAVVVADDDRWYPALSAGAQAVHLQKASPMLQWQVYAGSRPISVSPGVTLNAAEPLDADTILTLEEPAQILDHWQALRGDAMAARQRGDATRRIFWQERRHAGERLPEFLQRVFDW
MGSDKIHHHHHHMVAQIQELDALHWVKTRSSLDPNQSTFLTWTGKIYAFIPGEKRKLLFKMVGVSVSRCLPTDEGNWDFTSRELTYYLNPENDEILRKWENPWTGETVPVLHVANNPVQGHFQGKFPAQVEGETTTFVFDIFPTYPNPLAEETQFAEYSPYPTYQAAELFKLTVPTADLFNAELPAVSQLRLSWDRIGQWLPWMKMGDRPGNLIYSAFGSKVNGLTELPHILQEEINTRVPLYKQAPKTFSDGEDMTSWLYFQKHFQAYLAGDIFPLPADEEV
MGSDKIHHHHHHMVAYGELIREVRLSKGLTQKEVYTGVISKSYAIGFEKGKHDITLVLFEEILERVMLSSDEFFFMNRGYSLAEEDNFWYKFANAANQKSLADLQELYQEVLQQTGDRANLRKAIVHSRMEINEQFLLNNRFDVSIVSEKDKAVIQTYLWKVQSWTLEEIRIFANSVDYFEEDVQIYFFQLVLKSLEKYKHYDRGKKVFSTLLSNIIEELITRNQLEYAAQLLEILHELSSTHDCAFYRIMHNYYQGLIWMKNDQVEQGLKESKSAIRILDVLDYKSLAQLYNTLLQQFLEKENIQIV
